Measurements: publication PMC9482650, “Quantitative fragmentomics allow affinity mapping of interactomes” (Nature Communications, 2022)
Changes are numbered by the printed parent chain.

Experiments:
Experiment in all cases: holdup assay
Design in all cases: key: below the threshold = too weak to quantify, mostly under pKd 3.1 to 4
Conditions in all cases: plain residues with an end cap or a label only (N-terminal biotin on a linker: ado-ado)
AHNAK1, Q09666 = biological target: AHNAK1, Q09666
LIN7C, Q9NUP9 = biological target: T1, LIN7C, Q9NUP9
T1 sequence (Q9NUP9 88-185, limits assumed, looked up): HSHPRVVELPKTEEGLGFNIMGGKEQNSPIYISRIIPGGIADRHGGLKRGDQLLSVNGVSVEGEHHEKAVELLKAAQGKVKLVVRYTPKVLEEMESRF

PDLIM1, O00151 = biological target: PDLIM1, O00151
DLG4_3, P78352 = biological target: DLG4_3, P78352
IL16_1, Q14005 = biological target: IL16_1, Q14005
DLG2_2, Q15700 = biological target: DLG2_2, Q15700
PDZD7_3, Q9H5P4 = biological target: T2, PDZD7_3, Q9H5P4
T2 sequence (Q9H5P4 857-944, limits assumed, looked up): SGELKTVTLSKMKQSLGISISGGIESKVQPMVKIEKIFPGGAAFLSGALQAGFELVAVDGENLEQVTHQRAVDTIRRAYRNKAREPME

HTRA1, Q92743 = biological target: HTRA1, Q92743
GRIP2_7, Q9C0E4 = biological target: GRIP2_7, Q9C0E4
NHERF3_3, Q5T2W1 = biological target: T3, NHERF3_3, Q5T2W1
T3 sequence (Q5T2W1 238-333, limits assumed, looked up): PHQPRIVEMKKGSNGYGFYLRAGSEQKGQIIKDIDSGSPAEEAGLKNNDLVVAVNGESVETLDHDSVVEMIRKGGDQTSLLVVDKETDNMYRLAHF

MPDZ_5, O75970 = biological target: T4, MPDZ_5, O75970
T4 sequence (O75970 695-796, limits assumed, looked up): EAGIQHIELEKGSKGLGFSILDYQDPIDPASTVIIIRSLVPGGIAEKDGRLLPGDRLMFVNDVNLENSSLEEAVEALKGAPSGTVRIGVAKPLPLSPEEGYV

DLG4_2, P78352 = biological target: DLG4_2, P78352
GRIP1_4, Q9Y3R0 = biological target: T5, GRIP1_4, Q9Y3R0
T5 sequence (Q9Y3R0 467-571, limits assumed, looked up): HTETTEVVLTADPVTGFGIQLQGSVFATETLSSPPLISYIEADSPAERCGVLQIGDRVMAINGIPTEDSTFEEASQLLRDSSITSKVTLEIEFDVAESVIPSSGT

LDB3, O75112 = biological target: LDB3, O75112
Inadl_10, Q8NI35 = biological target: Inadl_10, Q8NI35
APBA2_2, Q99767 = biological target: T6, APBA2_2, Q99767
T6 sequence (Q99767 654-744, limits assumed, looked up): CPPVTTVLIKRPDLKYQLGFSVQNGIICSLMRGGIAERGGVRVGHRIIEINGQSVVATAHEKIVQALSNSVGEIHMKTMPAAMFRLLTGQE

MAGI2_3, Q86UL8 = biological target: MAGI2_3, Q86UL8
MAGI2_4, Q86UL8 = biological target: MAGI2_4, Q86UL8
Inadl_5, Q8NI35 = biological target: Inadl_5, Q8NI35
LNX1_3, Q8TBB1 = biological target: LNX1_3, Q8TBB1
PDZRN4_1, Q6ZMN7 = biological target: PDZRN4_1, Q6ZMN7
LAP2, Q96RT1 = biological target: LAP2, Q96RT1
FRMPD3, Q5JV73 = biological target: FRMPD3, Q5JV73
LIN7B, Q9HAP6 = biological target: T7, LIN7B, Q9HAP6
T7 sequence (Q9HAP6 88-185, limits assumed, looked up): T1 sequence (Q9NUP9 88-185, limits assumed, looked up) with S2A, E13D, I35V, I40V, H65Q, K79S, K89R, S96A

IL16_4, Q14005 = biological target: IL16_4, Q14005
DLG1_1, Q12959 = biological target: DLG1_1, Q12959
APBA3_1, O96018 = biological target: T8, APBA3_1, O96018
T8 sequence (O96018 389-490, limits assumed, looked up): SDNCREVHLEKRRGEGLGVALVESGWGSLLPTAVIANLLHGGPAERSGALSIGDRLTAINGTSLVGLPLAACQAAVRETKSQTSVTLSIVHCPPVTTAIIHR

HTRA3, P83110 = biological target: T9, HTRA3, P83110
T9 sequence (P83110 354-453, limits assumed, looked up): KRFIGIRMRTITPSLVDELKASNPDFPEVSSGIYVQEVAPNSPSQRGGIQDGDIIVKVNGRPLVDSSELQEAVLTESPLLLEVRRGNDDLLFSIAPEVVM

ARHGEF12, Q9NZN5-2 = biological target: ARHGEF12, Q9NZN5-2
Sequence of ARHGEF12, Q9NZN5-2 (Q9NZN5 other isoform, or with tags, fused parts or gaps): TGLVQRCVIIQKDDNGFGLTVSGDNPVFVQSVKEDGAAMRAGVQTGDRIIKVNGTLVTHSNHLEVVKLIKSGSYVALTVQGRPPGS

Sequence of DLG4_2, P78352 (P78352 155-259): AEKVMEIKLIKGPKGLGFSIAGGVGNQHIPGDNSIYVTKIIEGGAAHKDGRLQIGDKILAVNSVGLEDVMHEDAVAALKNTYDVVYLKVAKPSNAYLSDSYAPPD
Sequence of PDLIM1, O00151 (O00151 1-87): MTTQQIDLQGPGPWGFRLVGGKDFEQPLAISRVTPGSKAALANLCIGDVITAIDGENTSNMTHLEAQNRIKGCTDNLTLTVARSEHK
Sequence of AHNAK1, Q09666 (Q09666 4-100): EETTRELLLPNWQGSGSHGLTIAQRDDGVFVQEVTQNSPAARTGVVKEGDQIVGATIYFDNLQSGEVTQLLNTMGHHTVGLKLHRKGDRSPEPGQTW
Sequence of MAGI2_4, Q86UL8 (Q86UL8 772-865): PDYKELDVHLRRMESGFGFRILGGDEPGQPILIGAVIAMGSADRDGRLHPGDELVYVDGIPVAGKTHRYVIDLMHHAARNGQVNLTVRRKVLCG
Sequence of Inadl_5, Q8NI35 (Q8NI35 673-780): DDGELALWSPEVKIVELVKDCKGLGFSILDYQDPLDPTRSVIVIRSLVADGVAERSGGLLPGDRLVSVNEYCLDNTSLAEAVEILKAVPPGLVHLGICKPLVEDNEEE
Sequence of LDB3, O75112 (O75112 1-94): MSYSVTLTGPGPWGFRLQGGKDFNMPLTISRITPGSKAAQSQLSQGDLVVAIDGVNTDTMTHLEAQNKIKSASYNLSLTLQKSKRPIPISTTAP
Sequence of MAGI2_3, Q86UL8 (Q86UL8 600-682): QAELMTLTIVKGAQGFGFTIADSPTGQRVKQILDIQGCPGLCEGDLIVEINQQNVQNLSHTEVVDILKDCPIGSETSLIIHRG
Sequence of DLG2_2, Q15700 (Q15700 189-283): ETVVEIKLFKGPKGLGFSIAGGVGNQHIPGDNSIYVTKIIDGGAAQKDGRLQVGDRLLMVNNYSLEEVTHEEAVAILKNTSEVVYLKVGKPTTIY
Sequence of HTRA1, Q92743 (Q92743 360-477): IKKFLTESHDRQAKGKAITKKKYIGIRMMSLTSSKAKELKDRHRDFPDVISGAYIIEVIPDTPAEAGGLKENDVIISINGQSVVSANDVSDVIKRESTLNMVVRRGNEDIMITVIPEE
Sequence of PDZRN4_1, Q6ZMN7 (Q6ZMN7 213-318): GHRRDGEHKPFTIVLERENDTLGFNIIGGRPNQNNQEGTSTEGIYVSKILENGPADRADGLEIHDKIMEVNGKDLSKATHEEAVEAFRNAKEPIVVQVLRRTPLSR
Sequence of FRMPD3, Q5JV73 (Q5JV73 12-100): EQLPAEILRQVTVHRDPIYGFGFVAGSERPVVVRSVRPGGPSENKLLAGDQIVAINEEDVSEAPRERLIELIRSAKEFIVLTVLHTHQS
Sequence of LAP2, Q96RT1 (Q96RT1 other isoform, or with tags, fused parts or gaps): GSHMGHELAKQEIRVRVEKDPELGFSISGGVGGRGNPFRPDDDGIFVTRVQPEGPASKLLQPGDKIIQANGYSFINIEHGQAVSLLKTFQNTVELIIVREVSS
Sequence of Inadl_10, Q8NI35 (Q8NI35 1673-1763): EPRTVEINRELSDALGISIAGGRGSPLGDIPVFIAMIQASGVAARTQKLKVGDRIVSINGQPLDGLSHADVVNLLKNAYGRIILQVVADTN
Sequence of LNX1_3, Q8TBB1 (Q8TBB1 500-596): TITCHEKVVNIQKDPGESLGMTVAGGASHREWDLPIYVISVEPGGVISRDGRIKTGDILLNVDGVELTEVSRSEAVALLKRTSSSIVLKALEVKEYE
Sequence of GRIP2_7, Q9C0E4 (Q9C0E4 934-1023): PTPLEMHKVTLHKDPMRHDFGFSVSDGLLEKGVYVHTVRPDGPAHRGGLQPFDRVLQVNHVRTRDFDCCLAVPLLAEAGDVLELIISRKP
Sequence of IL16_1, Q14005 (Q14005 210-306): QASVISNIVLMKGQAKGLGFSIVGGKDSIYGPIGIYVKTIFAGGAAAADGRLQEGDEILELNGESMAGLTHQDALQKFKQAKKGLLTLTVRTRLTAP
Sequence of IL16_4, Q14005 (Q14005 1229-1329): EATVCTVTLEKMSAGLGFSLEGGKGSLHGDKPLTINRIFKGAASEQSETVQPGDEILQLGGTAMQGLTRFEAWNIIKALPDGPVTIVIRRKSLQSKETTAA
Sequence of DLG4_3, P78352 (P78352 306-403): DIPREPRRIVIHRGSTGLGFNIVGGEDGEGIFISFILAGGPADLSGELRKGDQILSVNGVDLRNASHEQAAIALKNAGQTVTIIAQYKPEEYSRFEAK

RELVMRVTTV [MARCHF4, Q9P2E8]
pKd (AHNAK1, Q09666): below the threshold
pKd (LIN7C, Q9NUP9): 4.3
pKd (PDLIM1, O00151): below the threshold
pKd (DLG4_3, P78352): 4.87
pKd (IL16_1, Q14005): 4.33
pKd (DLG2_2, Q15700): 5.2
pKd (PDZD7_3, Q9H5P4): 5.28
pKd (HTRA1, Q92743): 4.96
pKd (GRIP2_7, Q9C0E4): below the threshold
pKd (NHERF3_3, Q5T2W1): below the threshold
pKd (MPDZ_5, O75970): below the threshold
pKd (DLG4_2, P78352): 5.28
pKd (GRIP1_4, Q9Y3R0): below the threshold
pKd (LDB3, O75112): below the threshold
pKd (Inadl_10, Q8NI35): below the threshold
pKd (APBA2_2, Q99767): below the threshold
pKd (MAGI2_3, Q86UL8): 4.56
pKd (MAGI2_4, Q86UL8): 4.82
pKd (Inadl_5, Q8NI35): below the threshold
pKd (LNX1_3, Q8TBB1): below the threshold
pKd (PDZRN4_1, Q6ZMN7): 3.88
pKd (LAP2, Q96RT1): 3.79
pKd (FRMPD3, Q5JV73): below the threshold
pKd (LIN7B, Q9HAP6): 4.2
pKd (IL16_4, Q14005): below the threshold
pKd (DLG1_1, Q12959): 5.19
pKd (APBA3_1, O96018): below the threshold
pKd (HTRA3, P83110): below the threshold
pKd (ARHGEF12, Q9NZN5-2): 4.86

DQPLEKSTKL [AKAP10, O43572]
pKd (AHNAK1, Q09666): below the threshold
pKd (LIN7C, Q9NUP9): below the threshold
pKd (PDLIM1, O00151): below the threshold
pKd (DLG4_3, P78352): below the threshold
pKd (IL16_1, Q14005): below the threshold
pKd (DLG2_2, Q15700): below the threshold
pKd (PDZD7_3, Q9H5P4): 4.54
pKd (HTRA1, Q92743): below the threshold
pKd (GRIP2_7, Q9C0E4): below the threshold
pKd (NHERF3_3, Q5T2W1): 4.79
pKd (MPDZ_5, O75970): below the threshold
pKd (DLG4_2, P78352): below the threshold
pKd (GRIP1_4, Q9Y3R0): below the threshold
pKd (LDB3, O75112): below the threshold
pKd (Inadl_10, Q8NI35): below the threshold
pKd (APBA2_2, Q99767): below the threshold
pKd (MAGI2_3, Q86UL8): below the threshold
pKd (MAGI2_4, Q86UL8): below the threshold
pKd (Inadl_5, Q8NI35): below the threshold
pKd (LNX1_3, Q8TBB1): below the threshold
pKd (PDZRN4_1, Q6ZMN7): 3.92
pKd (LAP2, Q96RT1): below the threshold
pKd (FRMPD3, Q5JV73): below the threshold
pKd (LIN7B, Q9HAP6): below the threshold
pKd (IL16_4, Q14005): below the threshold
pKd (DLG1_1, Q12959): below the threshold
pKd (APBA3_1, O96018): below the threshold
pKd (HTRA3, P83110): below the threshold
pKd (ARHGEF12, Q9NZN5-2): 4.97
